Reference: article PMC7031110 (Cell, 2014)

Target: CaMKIIα (UniProt P11275 1-478)
Experiment: fluorescence polarisation

Chain of CaMKIIα (P11275 whole entry): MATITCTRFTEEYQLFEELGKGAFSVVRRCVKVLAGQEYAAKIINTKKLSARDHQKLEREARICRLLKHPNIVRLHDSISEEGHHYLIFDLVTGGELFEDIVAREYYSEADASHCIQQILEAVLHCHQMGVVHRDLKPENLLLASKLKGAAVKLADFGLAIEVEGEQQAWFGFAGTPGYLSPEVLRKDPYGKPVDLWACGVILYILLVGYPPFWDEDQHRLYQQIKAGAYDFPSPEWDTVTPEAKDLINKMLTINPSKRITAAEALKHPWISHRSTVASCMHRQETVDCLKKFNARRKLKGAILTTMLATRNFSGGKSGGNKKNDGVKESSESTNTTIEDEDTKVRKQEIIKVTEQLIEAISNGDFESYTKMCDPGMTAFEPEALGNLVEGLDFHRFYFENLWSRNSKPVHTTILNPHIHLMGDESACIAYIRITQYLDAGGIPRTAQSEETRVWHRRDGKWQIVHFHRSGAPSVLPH

B1: IQ peptide TVGKFYATFLIQEYFR of Cav1.2/Cav1.3 (peptide)
peptide: TVGKFYATFLIQEYFR
Kd: 31 ± 7 nM
